Measurements taken from patent US20200199241A1 (Chugai, published 2020).
Numbering of substitutions follows the chain as printed.

B1: IgG1-F831 (antibody)
heavy: QVQLQESGPGLVKPSETLSLTCAVSGHSISHDHAWSWVRQPPGEGLEWIGFISYSGITNYNPSLQGRVTISRDNSKNTLYLQMNSLRAEDTAVYYCARSLARTTAMDYWGEGTLVTVSSASTKGPSVFPLAPSSKSTSGGTAALGCLVKDYFPEPVTVSWNSGALTSGVHTFPAVLQSSGLYSLSSVVTVPSSSLGTQTYICNVNHKPSNTKVDKKVEPKSCDKTHTCPPCPAPELLGGDSVFLFPPKPKDVLYISATPEVTCVVVDVSHEDPEVKFNWYVDGVEVHNAKTKPREEQYNSTYRVVSVLTVLHQDWLNGKEYKCKVSNKALPAPIEKTISKAKGQPREPQVYTLPPSRDELTKNQVSLTCLVKGFYPSDIAVEWESNGQPENNYKTTPPVLDSDGSFFLYSKLTVDKSRWQQGNVFSCSVMHEALHYHYTQKSLSLSP
light: not shown
notes: EU numbering; copies: 2 + 2
B2: IgG1-F905 (antibody)
heavy: B1 heavy with D240P, V252T, A257R, N317D, G318K
light: not shown
notes: EU numbering; copies: 2 + 2
B3: IgG1-F847 (antibody)
heavy: B1 heavy with A257W
light: not shown
notes: EU numbering; copies: 2 + 2
B4: IgG1-F832 (antibody)
heavy: B1 heavy with A257D
light: not shown
notes: EU numbering; copies: 2 + 2
B5: IgG1-F834 (antibody)
heavy: B1 heavy with A257F
light: not shown
notes: EU numbering; copies: 2 + 2
B6: IgG1-F838 (antibody)
heavy: B1 heavy with A257K
light: not shown
notes: EU numbering; copies: 2 + 2
B7: IgG1-F904 (antibody)
heavy: B1 heavy with D240P, V252T, A257R, N317D, G318I
light: not shown
notes: EU numbering; copies: 2 + 2
B8: IgG1-F889 (antibody)
heavy: B1 heavy with D240P, V252T, A257R, Y438T
light: not shown
notes: EU numbering; copies: 2 + 2
B9: IgG1-F867 (antibody)
heavy: B1 heavy with D240P, V252T, A257R, N386A, N391A
light: not shown
notes: EU numbering; copies: 2 + 2
B10: IgG1-F850 (antibody)
heavy: B1 heavy with D240P, V252T, A257R, D282E
light: not shown
notes: EU numbering; copies: 2 + 2
B11: IgG1-F875 (antibody)
heavy: B1 heavy with D240P, V252T, A257R, Y438A
light: not shown
notes: EU numbering; copies: 2 + 2
B12: IgG1-F871 (antibody)
heavy: B1 heavy with L237R, D240P, S241K, V252T, A257R, T309Q, Q313A
light: not shown
notes: EU numbering; copies: 2 + 2
B13: IgG1-F881 (antibody)
heavy: B1 heavy with D240P, V252T, A257R, Y438K
light: not shown
notes: EU numbering; copies: 2 + 2
B14: IgG1-F900 (antibody)
heavy: B1 heavy with D240P, V252T, A257R, N317D, G318D
light: not shown
notes: EU numbering; copies: 2 + 2
B15: IgG1-F878 (antibody)
heavy: B1 heavy with D240P, V252T, A257R, Y438F
light: not shown
notes: EU numbering; copies: 2 + 2
B16: IgG1-F903 (antibody)
heavy: B1 heavy with D240P, V252T, A257R, N317D, G318H
light: not shown
notes: EU numbering; copies: 2 + 2
B17: IgG1-F833 (antibody)
heavy: B1 heavy with A257E
light: not shown
notes: EU numbering; copies: 2 + 2
B18: IgG1-F872 (antibody)
heavy: B1 heavy with L237K, D240P, S241K, V252T, A257R, N288E
light: not shown
notes: EU numbering; copies: 2 + 2
B19: IgG1-F848 (antibody)
heavy: B1 heavy with A257Y
light: not shown
notes: EU numbering; copies: 2 + 2
B20: IgG1-F899 (antibody)
heavy: B1 heavy with D240P, V252T, A257R, N317D, G318A
light: not shown
notes: EU numbering; copies: 2 + 2
B21: IgG1-F909 (antibody)
heavy: B1 heavy with D240P, V252T, A257R, N317D, G318P
light: not shown
notes: EU numbering; copies: 2 + 2
B22: IgG1-F883 (antibody)
heavy: B1 heavy with D240P, V252T, A257R, Y438M
light: not shown
notes: EU numbering; copies: 2 + 2
B23: IgG1-F873 (antibody)
heavy: B1 heavy with L237R, D240P, S241K, V252T, A257R, N288E
light: not shown
notes: EU numbering; copies: 2 + 2
B24: IgG1-F852 (antibody)
heavy: B1 heavy with D240P, V252T, A257R, D282G
light: not shown
notes: EU numbering; copies: 2 + 2
B25: IgG1-F891 (antibody)
heavy: B1 heavy with D240P, V252T, A257R, Y438W
light: not shown
notes: EU numbering; copies: 2 + 2
B26: IgG1-F853 (antibody)
heavy: B1 heavy with D240P, V252T, A257R, D282H
light: not shown
notes: EU numbering; copies: 2 + 2
B27: IgG1-F902 (antibody)
heavy: B1 heavy with D240P, V252T, A257R, N317D, G318F
light: not shown
notes: EU numbering; copies: 2 + 2
B28: IgG1-F836 (antibody)
heavy: B1 heavy with A257H
light: not shown
notes: EU numbering; copies: 2 + 2
B29: IgG1-F879 (antibody)
heavy: B1 heavy with D240P, V252T, A257R, Y438G
light: not shown
notes: EU numbering; copies: 2 + 2
B30: IgG1-F877 (antibody)
heavy: B1 heavy with D240P, V252T, A257R, Y438E
light: not shown
notes: EU numbering; copies: 2 + 2
B31: IgG1-F840 (antibody)
heavy: B1 heavy with A257M
light: not shown
notes: EU numbering; copies: 2 + 2
B32: IgG1-F882 (antibody)
heavy: B1 heavy with D240P, V252T, A257R, Y438L
light: not shown
notes: EU numbering; copies: 2 + 2
B33: IgG1-F860 (antibody)
heavy: B1 heavy with D240P, V252T, A257R, D282Q
light: not shown
notes: EU numbering; copies: 2 + 2
B34: IgG1-F896 (antibody)
heavy: B1 heavy with L237R, D240P, S241K, V252T, A257R, N288E, T309Q, Q313A, N317E
light: not shown
notes: EU numbering; copies: 2 + 2
B35: IgG1-F893 (antibody)
heavy: B1 heavy with L237K, D240P, S241K, V252T, A257R, Y438I
light: not shown
notes: EU numbering; copies: 2 + 2
B36: IgG1-F901 (antibody)
heavy: B1 heavy with D240P, V252T, A257R, N317D, G318E
light: not shown
notes: EU numbering; copies: 2 + 2
B37: IgG1-F849 (antibody)
heavy: B1 heavy with D240P, V252T, A257R, D282A
light: not shown
notes: EU numbering; copies: 2 + 2
B38: IgG1-F858 (antibody)
heavy: B1 heavy with D240P, V252T, A257R, D282N
light: not shown
notes: EU numbering; copies: 2 + 2
B39: IgG1-F862 (antibody)
heavy: B1 heavy with D240P, V252T, A257R, D282S
light: not shown
notes: EU numbering; copies: 2 + 2
B40: IgG1-F837 (antibody)
heavy: B1 heavy with A257I
light: not shown
notes: EU numbering; copies: 2 + 2
B41: IgG1-F841 (antibody)
heavy: B1 heavy with A257N
light: not shown
notes: EU numbering; copies: 2 + 2
B42: IgG1-F843 (antibody)
heavy: B1 heavy with A257Q
light: not shown
notes: EU numbering; copies: 2 + 2
B43: IgG1-F884 (antibody)
heavy: B1 heavy with D240P, V252T, A257R, Y438N
light: not shown
notes: EU numbering; copies: 2 + 2
B44: IgG1-F907 (antibody)
heavy: B1 heavy with D240P, V252T, A257R, N317D, G318M
light: not shown
notes: EU numbering; copies: 2 + 2
B45: IgG1-F880 (antibody)
heavy: B1 heavy with D240P, V252T, A257R, Y438H
light: not shown
notes: EU numbering; copies: 2 + 2
B46: IgG1-F868 (antibody)
heavy: B1 heavy with G238A, D240P, S241D, V252T, A257R, N288E, T309Q, Q313A
light: not shown
notes: EU numbering; copies: 2 + 2
B47: IgG1-F863 (antibody)
heavy: B1 heavy with D240P, V252T, A257R, D282T
light: not shown
notes: EU numbering; copies: 2 + 2
B48: IgG1-F839 (antibody)
heavy: B1 heavy with A257L
light: not shown
notes: EU numbering; copies: 2 + 2
B49: IgG1-F894 (antibody)
heavy: B1 heavy with L237R, D240P, S241K, V252T, A257R, Y438I
light: not shown
notes: EU numbering; copies: 2 + 2
B50: IgG1-F888 (antibody)
heavy: B1 heavy with D240P, V252T, A257R, Y438S
light: not shown
notes: EU numbering; copies: 2 + 2
B51: IgG1-F892 (antibody)
heavy: B1 heavy with D240P, V252T, S256T, A257R, Y438I
light: not shown
notes: EU numbering; copies: 2 + 2
B52: IgG1-F906 (antibody)
heavy: B1 heavy with D240P, V252T, A257R, N317D, G318L
light: not shown
notes: EU numbering; copies: 2 + 2
B53: IgG1-F861 (antibody)
heavy: B1 heavy with D240P, V252T, A257R, D282R
light: not shown
notes: EU numbering; copies: 2 + 2
B54: IgG1-F895 (antibody)
heavy: B1 heavy with L237K, D240P, S241K, V252T, A257R, N288E, T309Q, Q313A, N317E
light: not shown
notes: EU numbering; copies: 2 + 2
B55: IgG1-F855 (antibody)
heavy: B1 heavy with D240P, V252T, A257R, D282K
light: not shown
notes: EU numbering; copies: 2 + 2
B56: IgG1-F898 (antibody)
heavy: B1 heavy with D240P, V252T, A257R, N317E, N386A, N391A
light: not shown
notes: EU numbering; also called E898; copies: 2 + 2
B57: IgG1-F908 (antibody)
heavy: B1 heavy with D240P, V252T, A257R, N317D, G318N
light: not shown
notes: EU numbering; copies: 2 + 2
B58: IgG1-F870 (antibody)
heavy: B1 heavy with L237K, D240P, S241K, V252T, A257R, T309Q, Q313A
light: not shown
notes: EU numbering; copies: 2 + 2
B59: IgG1-F844 (antibody)
heavy: B1 heavy with A257S
light: not shown
notes: EU numbering; copies: 2 + 2
B60: IgG1-F897 (antibody)
heavy: B1 heavy with D240P, V252T, A257R, N317D, N386A, N391A
light: not shown
notes: EU numbering; copies: 2 + 2

Target: T1, soluble human FcRn complexed with β2-microglobulin (human, UniProt P61769 21-119, limits assumed)
T1 construct: also called hFcRn
Assay: Biacore SPR, pH 7.0;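 note: test antibodies captured on a Protein L chip with human FcRn flowed over as analyte, KD obtained as the ratio of dissociation to association rate constants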

Row | Kd | Binder
1 | 1600 nM | B1
2 | 130 nM | B2
3 | 340 nM | B3
4 | 2600 nM | B4
5 | 810 nM | B5
6 | 430 nM | B6
7 | 100 nM | B7
8 | 220 nM | B8
9 | 280 nM | B9
10 | 290 nM | B10
11 | 480 nM | B11
12 | 71 nM | B12
13 | 310 nM | B13
14 | 170 nM | B14
15 | 190 nM | B15
16 | 230 nM | B16
17 | 800 nM | B17
18 | 130 nM | B18
19 | 830 nM | B19
20 | 110 nM | B20

Row | Kd | Binder
21 | 130 nM | B21
22 | 210 nM | B22
23 | 120 nM | B23
24 | 330 nM | B24
25 | 170 nM | B25
26 | 320 nM | B26
27 | 220 nM | B27
28 | 500 nM | B28
29 | 920 nM | B29
30 | 830 nM | B30
31 | 420 nM | B31
32 | 130 nM | B32
33 | 330 nM | B33
34 | 20 nM | B34
35 | 98 nM | B35
36 | 130 nM | B36
37 | 330 nM | B37
38 | 320 nM | B38
39 | 300 nM | B39
40 | 560 nM | B40

Row | Kd | Binder
41 | 1100 nM | B41
42 | 660 nM | B42
43 | 400 nM | B43
44 | 130 nM | B44
45 | 390 nM | B45
46 | 20 nM | B46
47 | 270 nM | B47
48 | 340 nM | B48
49 | 92 nM | B49
50 | 480 nM | B50
51 | 71 nM | B51
52 | 150 nM | B52
53 | 320 nM | B53
54 | 21 nM | B54
55 | 320 nM | B55
56 | 170 nM | B56
57 | 150 nM | B57
58 | 73 nM | B58
59 | 1300 nM | B59
60 | 97 nM | B60
